Test system: MS2 coat protein
Assay: apparent KD of MS2 coat protein; higher = weaker reporter binding
Settings: Eterna round: R107
Procedure, shortened: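 Apparent KD was obtained for each design as the median of normalised binding-curve fits over its clusters. RNA switches transcribed on-chip from Illumina sequencing clusters were titrated with SNAP-549-labelled MS2 coat protein (twofold steps, 0.7 or 1.5 nM to 3 µM) in 100 mM Tris-HCl pH 7.5, 80 mM KCl, 4 mM MgCl2, without or with constant ligand.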

[1] = input ligand: theophylline 20 uM
[2] = input ligand: theophylline 2 mM
[3] = input ligand: tryptophan 2.4 mM

Row | Sequence | apparent KD of MS2 coat protein (input ligand: arginine 13.2 mM) [nM] | apparent KD of MS2 coat protein (input ligand: none) [nM] | apparent KD of MS2 coat protein [1] [nM] | apparent KD of MS2 coat protein [2] [nM] | apparent KD of MS2 coat protein [3] [nM]
1 | AACAACAAGGGAAGGAGCGCGAAUUAUAGACAUGAGGAUCACCCAUGUAACAUGGGAUUAACGCAGGUAGGUCGCCCACAAACAA [#08 Exclusion - Arginine B] | 80.5 | 162 | 237 | 177 | 117
2 | AAAUAAAUACAUGAGGAUCACCCAUGUGAAGGAGCGCGCGUUAGCGCAGGUAGGUCGCACAUGAACUCCAAAGUGCAAAAGCACA [MAT - Exclusion Arginine A - Mod of Eli - D8] | 19.7 | 22.8 | 25.1 | 20.5 | 24.7
3 | ACGUAAUGCAGAAGGAGCGUCUUAUUAAUACAUGAGGAUCACCCAUGUUAUAUUUAUGGUAGACAGGUAGGUCGCUGAAGUACGA [JR_SSArginiB_Sub008] | 8.86 | 11.8 | 17.3 | 13.2 | 10.7
4 | GGAUAGGACAGAAGGAGCGACAUGAGGAUCACCCAUGUGGAUCAACGACGAAAGUCGCCAUGUCAGGUAGGUCGCUGUCCUAUCG [ArgXB 8 #MS2Gate #StaticStem #MS2LeftOffAptamer] | 139 | 511 | 549 | 969 | 918
5 | GGUUGGUGUAUAUAUAUAUUGAUUACUGAAGGAGCGGGAAAUAACCCAGGUAGGUCGCAGAGAUCCACAUGAGGAUCACCCAUGU [!0.J] | 31 | 53.7 | 50.2 | 51 | 38.9
6 | AAUAAUAUCCUCAUGUGAGUCGUACCAUAACGAGGACCGGUACGGCCGCCACUCGAACAUGAGGAUCACCCAUGUAGGUAUGAUA [M'-T'-T-MS2-T'' - Design 7] | 50.6 |  | 120 | 345 | 
7 | ACGACAUGAGGAUCACCCAUGUGUACUGAAGGAGCGGCGGAAACGCCAGGUAGGUCGCAGUACACCUCAACCAGCGGUCCUAAGU [EAA NP+V+V2 #2] | 27 | 64.1 | 78.4 | 107 | 64.3
8 | GUUGGUUUGCGAAGGAGCGGGUAUGUUGUCUACUGGAUCCUAACAUGAGGAUCACCCAUGUCCCAGGUAGGUCGCGCGGGCUUUG [12.aB] | 34.1 | 28.3 | 56.3 | 52.2 | 38.2
9 | GGCACAUAGUCGGCCGCCACUAGUGGGAAAUGGGAGAACAUGAGGAUCACCCAUGUAUAAUAGCCUAGGACCGGGACUAUGUGCC [Elk] | 64.2 | 188 | 227 | 113 | 55.3
10 | AUUUGUACUUAGUGUUGAGUUCUGUCGGAAGGAGCGGAAUAUAAUCCAGGUAGGUCGCCGACAGACAUGAGGAUCACCCAUGUAA [#09 Exclusion - Arginine A] | 28.2 | 38.3 | 38.9 | 34.7 | 32.3
11 | AGCGACAUGCGUGAUACCAGCUACAUGAGGAUCACCCAUGUAAGUAGGAAACUACUGUGUAGCCCUUGGCAGCAUAGUGCAUGUC [Exclusion - Theophylline B (Freestyle 22)] | 13.4 |  | 23.5 |  | 15
12 | AUACCUAAUGUUACGUUUUCCUUUUCAGAUACCAGACUUUACGUUGUCCCUUGGCAGCUGUAUUACAUGAGGAUCACCCAUGUUG [JR_SSTheophyA_Sub008] | 19.8 |  | 26.7 |  | 20.4
13 | GGGCCCGGGCGCGAGCCCGGGCCCAUUGAUACCAGUGAAUAUAUACGCCCUUGGCAGCGAAUCCUAACAUGAGGAUCACCCAUGU [5.B] | 34.8 | 50.2 | 62.3 | 49.4 | 38.2
14 | AAACGCCACGGAAGGAGCGACAUGAGGAUCACCCAUGUAGACGUGGCGGAUGCACCCUCCUGUCAGGUAGGUCGCCGUGCGCCAA [Engebite] | 10.9 | 11 | 15.5 | 12.2 | 11.2
